Experimental data reported in paper PMC11381518, “Human cell surface-AAV interactomes identify LRP6 as blood-brain barrier transcytosis receptor and immune cytokine IL3 as AAV9 binder” (Nature Communications, 2024).

Columns and labels:
Experiment in all cases: pull-down; prey AAVs mixed with His-tagged bait protein and Ni-NTA resin in DPBS with 20 mM imidazole, 1 h at 4 °C; eluate analysed by Western blot with anti-VP1/VP2/VP3 and anti-6xHis
Conditions in all cases: both partners purified
AAV9 capsid = target: T1, AAV9 capsid (adeno-associated virus 9, UniProt Q6JC40 1-736)
T1 construct: AAV9 capsid protein VP1; numbers count on VP1; Assembled capsid with a packaged genome; also called AAV9 (parent of vectors below); source: HEK293 cells, triple transfected, purified (iodixanol gradient); copies: 60

AAV.CAP-Mac capsid = target: T2, AAV.CAP-Mac capsid (adeno-associated virus 9, UniProt Q6JC40 1-736, VR VIII AA587-590 AQ - - - - - - - AQ to AQLNTTKPIAQ)
T2 construct: AAV9 capsid protein VP1 with an insertion in VR-VIII; numbers count on VP1; source: HEK293 cells, triple transfected, purified (iodixanol gradient); copies: 60

AAV9-X1.1 capsid = target: T3, AAV9-X1.1 capsid (adeno-associated virus 9, UniProt Q6JC40 1-736, VR IV AA452-458 NGSGQNQ to DGAATKN | VR VIII AA587-590 AQ - - - - - - - AQ to …)
T3 construct: AAV9 capsid protein VP1 with changes in VR-IV and VR-VIII; numbers count on VP1; also called AAV-X1.1; source: HEK293 cells, triple transfected, purified (iodixanol gradient); copies: 60

Measured: binding result

B1: human Adeno-Associated Virus Receptor (AAVR) PKD2 domain (AA 401-498) tagged with 6xHis (domain or fragment)
chain: EPRKNRPPIAIVSPQFQEISLPTTSTVIDGSQSTDDDKIVQYHWEELKGPLREEKISEDTAILKLSKLVPGNYTFSLTVVDSDGATNSTTANLTVNKA
notes: human AAVR (KIAA0319L), PKD2 domain, AA 401-498; source: E. coli BL21(DE3)-RIPL, purified (Ni-NTA)
binds: AAV9 capsid | AAV.CAP-Mac capsid | AAV9-X1.1 capsid
